In publication PMC12906810, “ZmMYB127 Modulates Maize Kernel Texture and Size by Integrating the Synthesis of Starch, Zein Proteins and Auxin”:

B1: z1D2 promoter WT probe (dsDNA)
DNA 1: GTTGAAATTGATTGATATCCACAAATTTTGTTAA
DNA 2: TTAACAAAATTTGTGGATATCAATCAATTTCAAC
B2: z1C1 promoter WT probe (dsDNA)
DNA 1: TCTACTAAGCTTGTTCAACCACGAGAAGAATATTAG
DNA 2: CTAATATTCTTCTCGTGGTTGAACAAGCTTAGTAGA
B3: Bt1 promoter WT probe (dsDNA)
DNA 1: CACGCGCCGCCATTTCTGTTGCGAATGAGTCCATGG
DNA 2: CCATGGACTCATTCGCAACAGAAATGGCGGCGCGTG
B4: Ae1 promoter WT probe (dsDNA)
DNA 1: GAGAATGAAAGCGAACTGTTGCTCACGGACTCTAAG
DNA 2: CTTAGAGTCCGTGAGCAACAGTTCGCTTTCATTCTC

Biological target: ZmMYB127 (Zea mays (inbred B73), UniProt A0A804N6V3 1-263)
Sequence (A0A804N6V3 entry or part of it): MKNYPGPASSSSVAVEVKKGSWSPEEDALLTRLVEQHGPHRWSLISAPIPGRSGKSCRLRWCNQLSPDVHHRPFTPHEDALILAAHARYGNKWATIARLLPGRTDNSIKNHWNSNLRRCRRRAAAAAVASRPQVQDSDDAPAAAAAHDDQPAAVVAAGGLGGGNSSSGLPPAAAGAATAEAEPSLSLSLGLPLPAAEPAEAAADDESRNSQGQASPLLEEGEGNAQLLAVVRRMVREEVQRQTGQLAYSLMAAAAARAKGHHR
Assay: EMSA; EMSA with LightShift Chemiluminescent EMSA kit protocol, 25 °C, 30 min, native PAGE; buffer, salt and pH not stated
Details: protein: recombinant; tags: GST (N-terminal, pGEX-6T); label: biotin (end); blunt

Binder | binding result
B1 | binds
B2 | binds
B3 | binds
B4 | binds
